# According to PMC9482650, “Quantitative fragmentomics allow affinity mapping of interactomes” (Nature Communications, 2022):
# T1: ARHGAP21, Q5T5U3
# T1 sequence (Q5T5U3 45-169, limits assumed, looked up): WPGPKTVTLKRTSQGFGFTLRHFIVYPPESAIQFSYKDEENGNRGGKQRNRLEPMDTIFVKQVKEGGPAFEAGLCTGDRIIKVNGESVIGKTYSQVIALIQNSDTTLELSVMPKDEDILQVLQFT
# T2: LIN7A, O14910
# T2 sequence (O14910 103-200, limits assumed, looked up): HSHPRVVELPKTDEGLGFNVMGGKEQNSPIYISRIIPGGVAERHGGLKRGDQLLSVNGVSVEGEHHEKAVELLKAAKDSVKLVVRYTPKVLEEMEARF
# T3: LRRC7, Q96NW7
# T3 sequence (Q96NW7 1440-1537, limits assumed, looked up): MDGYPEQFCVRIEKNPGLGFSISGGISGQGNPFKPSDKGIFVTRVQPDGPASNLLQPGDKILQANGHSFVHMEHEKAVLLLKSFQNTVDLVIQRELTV
# T4: MPDZ_5, O75970
# T4 sequence (O75970 695-796, limits assumed, looked up): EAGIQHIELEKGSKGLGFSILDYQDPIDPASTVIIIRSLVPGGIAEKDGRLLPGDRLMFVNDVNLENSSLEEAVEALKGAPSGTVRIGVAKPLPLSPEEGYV
# T5: PARD3B_1, Q8TEW8
# T5 sequence (Q8TEW8 196-299, limits assumed, looked up): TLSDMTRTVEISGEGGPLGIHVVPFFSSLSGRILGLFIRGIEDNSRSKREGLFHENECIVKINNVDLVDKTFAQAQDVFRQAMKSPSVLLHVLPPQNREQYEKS
# T6: PCLO, Q9Y6V0
# T6 sequence (Q9Y6V0 4491-4600, limits assumed, looked up): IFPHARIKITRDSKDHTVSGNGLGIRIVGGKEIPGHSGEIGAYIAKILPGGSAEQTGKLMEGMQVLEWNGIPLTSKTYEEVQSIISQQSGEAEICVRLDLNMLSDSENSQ
# T7: PDZD7_3, Q9H5P4
# T7 sequence (Q9H5P4 857-944, limits assumed, looked up): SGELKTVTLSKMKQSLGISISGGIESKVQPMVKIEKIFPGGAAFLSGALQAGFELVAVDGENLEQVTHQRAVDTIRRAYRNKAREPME
# T8: PTPN13_1, Q12923
# T8 sequence (Q12923 1088-1188, limits assumed, looked up): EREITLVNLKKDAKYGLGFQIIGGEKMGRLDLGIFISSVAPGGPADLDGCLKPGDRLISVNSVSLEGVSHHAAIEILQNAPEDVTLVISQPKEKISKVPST
# T9: RAPGEF6, Q8TEU7
# T9 sequence (Q8TEU7 525-625, limits assumed, looked up): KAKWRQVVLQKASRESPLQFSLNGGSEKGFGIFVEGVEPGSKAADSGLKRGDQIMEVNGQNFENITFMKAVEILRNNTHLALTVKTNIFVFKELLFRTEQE
# T10: SIPA1L2, Q9P2F8
# T10 sequence (Q9P2F8 945-1036, limits assumed, looked up): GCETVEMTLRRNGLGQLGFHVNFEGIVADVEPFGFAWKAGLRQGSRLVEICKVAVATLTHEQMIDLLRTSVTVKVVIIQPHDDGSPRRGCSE
# T11: SNTB1, Q13884
# T11 sequence (Q13884 107-205, limits assumed, looked up): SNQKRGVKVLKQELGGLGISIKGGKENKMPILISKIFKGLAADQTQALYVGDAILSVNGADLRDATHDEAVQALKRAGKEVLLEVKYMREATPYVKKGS
# T12: SYNJ2BP, P57105
# T12 sequence (P57105 8-110, limits assumed, looked up): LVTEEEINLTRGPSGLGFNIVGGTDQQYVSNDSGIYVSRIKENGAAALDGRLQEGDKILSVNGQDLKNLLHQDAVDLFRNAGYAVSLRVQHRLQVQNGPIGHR
# Legend:
# Test in all cases: holdup assay
# Set-up in all cases: key: below the threshold = too weak to quantify, mostly under pKd 3.1 to 4
# Conditions in all cases: plain residues with an end cap or a label only (N-terminal biotin on a linker: ttds)
# [1] = target: T1, ARHGAP21, Q5T5U3
# [2] = target: DLG1_2, Q12959
# Chain of DLG1_2, Q12959 (Q12959 314-412): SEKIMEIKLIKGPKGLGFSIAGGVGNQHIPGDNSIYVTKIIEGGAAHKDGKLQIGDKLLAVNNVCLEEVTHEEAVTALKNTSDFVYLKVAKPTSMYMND
# [3] = target: DLG1_3, Q12959
# Chain of DLG1_3, Q12959 (Q12959 457-571): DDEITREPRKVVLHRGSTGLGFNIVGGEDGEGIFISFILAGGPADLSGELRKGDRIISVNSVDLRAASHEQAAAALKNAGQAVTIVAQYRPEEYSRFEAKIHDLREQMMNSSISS
# [4] = target: DLG2_2, Q15700
# [5] = target: DLG2_3, Q15700
# [6] = target: DLG4_3, P78352
# Chain of DLG4_3, P78352 (P78352 306-403): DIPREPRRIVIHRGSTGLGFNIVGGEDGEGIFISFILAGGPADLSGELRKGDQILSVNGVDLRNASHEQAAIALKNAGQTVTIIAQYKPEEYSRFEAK
# [7] = target: FRMPD2_2, Q68DX3
# Chain of FRMPD2_2, Q68DX3 (Q68DX3 944-1038): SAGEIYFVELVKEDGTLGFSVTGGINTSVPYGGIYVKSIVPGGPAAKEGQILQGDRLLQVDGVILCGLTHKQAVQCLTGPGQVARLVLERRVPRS
# [8] = target: GIPC2, Q8TF65
# Chain of GIPC2, Q8TF65 (Q8TF65 112-203): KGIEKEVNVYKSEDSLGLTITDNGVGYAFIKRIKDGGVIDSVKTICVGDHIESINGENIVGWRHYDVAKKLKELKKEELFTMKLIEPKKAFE
# [9] = target: GOPC, Q9HD26
# [10] = target: GRID2IP_1, A4D2P6
# Chain of GRID2IP_1, A4D2P6 (A4D2P6 1-87): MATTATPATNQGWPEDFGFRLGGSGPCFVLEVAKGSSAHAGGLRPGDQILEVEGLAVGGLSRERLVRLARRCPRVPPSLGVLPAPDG
# [11] = target: GRIP2_3, Q9C0E4
# Chain of GRIP2_3, Q9C0E4 (Q9C0E4 238-339): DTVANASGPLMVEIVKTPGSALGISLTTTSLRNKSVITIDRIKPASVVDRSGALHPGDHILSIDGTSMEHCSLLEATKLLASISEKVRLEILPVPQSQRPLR
# [12] = target: GRIP2_7, Q9C0E4
# Chain of GRIP2_7, Q9C0E4 (Q9C0E4 934-1023): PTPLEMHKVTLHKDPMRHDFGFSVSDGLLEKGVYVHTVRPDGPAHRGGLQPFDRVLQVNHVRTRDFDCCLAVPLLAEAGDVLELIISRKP
# [13] = target: HTRA1, Q92743
# Chain of HTRA1, Q92743 (Q92743 360-477): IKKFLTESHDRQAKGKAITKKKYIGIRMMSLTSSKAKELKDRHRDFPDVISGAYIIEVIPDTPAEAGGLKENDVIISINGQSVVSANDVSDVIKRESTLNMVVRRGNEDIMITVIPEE
# [14] = target: Inadl_10, Q8NI35
# Chain of Inadl_10, Q8NI35 (Q8NI35 1673-1763): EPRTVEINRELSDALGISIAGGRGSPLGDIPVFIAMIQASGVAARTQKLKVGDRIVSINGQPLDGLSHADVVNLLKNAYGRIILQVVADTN
# [15] = target: T2, LIN7A, O14910
# [16] = target: T3, LRRC7, Q96NW7
# [17] = target: T4, MPDZ_5, O75970
# [18] = target: T5, PARD3B_1, Q8TEW8
# [19] = target: T6, PCLO, Q9Y6V0
# [20] = target: T7, PDZD7_3, Q9H5P4
# [21] = target: T8, PTPN13_1, Q12923
# [22] = target: T9, RAPGEF6, Q8TEU7
# [23] = target: T10, SIPA1L2, Q9P2F8
# [24] = target: T11, SNTB1, Q13884
# [25] = target: T12, SYNJ2BP, P57105
binder,measurement,setting,value
"QRQARSETLV [HPV59-E6, Q81964]",pKd,[1],below the threshold
same,pKd,[2],5.56
same,pKd,[3],3.82
same,pKd,[4],4.97
same,pKd,[5],4.84
same,pKd,[6],4.21
same,pKd,[7],3.95
same,pKd,[8],below the threshold
same,pKd,[9],3.92
same,pKd,[10],below the threshold
same,pKd,[11],below the threshold
same,pKd,[12],below the threshold
same,pKd,[13],4.14
same,pKd,[14],below the threshold
same,pKd,[15],below the threshold
same,pKd,[16],below the threshold
same,pKd,[17],3.81
same,pKd,[18],below the threshold
same,pKd,[19],below the threshold
same,pKd,[20],4.72
same,pKd,[21],below the threshold
same,pKd,[22],below the threshold
same,pKd,[23],below the threshold
same,pKd,[24],3.86
same,pKd,[25],4.81
"PRVKPQRSKV [PPP1R13L, Q8WUF5]",pKd,[1],below the threshold
same,pKd,[2],below the threshold
same,pKd,[3],below the threshold
same,pKd,[4],below the threshold
same,pKd,[5],below the threshold
same,pKd,[6],below the threshold
same,pKd,[7],below the threshold
same,pKd,[8],below the threshold
same,pKd,[9],3.95
same,pKd,[10],below the threshold
same,pKd,[11],below the threshold
same,pKd,[12],below the threshold
same,pKd,[13],below the threshold
same,pKd,[14],below the threshold
same,pKd,[15],below the threshold
same,pKd,[16],below the threshold
same,pKd,[17],below the threshold
same,pKd,[18],below the threshold
same,pKd,[19],below the threshold
same,pKd,[20],3.67
same,pKd,[21],below the threshold
same,pKd,[22],below the threshold
same,pKd,[23],below the threshold
same,pKd,[24],3.65
same,pKd,[25],below the threshold
"SKPTRRETEV [HPV35-E6, P27228]",pKd,[1],below the threshold
same,pKd,[2],5.64
same,pKd,[3],4.77
same,pKd,[4],5.27
same,pKd,[5],5.31
same,pKd,[6],5.2
same,pKd,[7],below the threshold
same,pKd,[8],below the threshold
same,pKd,[9],below the threshold
same,pKd,[10],below the threshold
same,pKd,[11],below the threshold
same,pKd,[12],below the threshold
same,pKd,[13],below the threshold
same,pKd,[14],below the threshold
same,pKd,[15],below the threshold
same,pKd,[16],3.59
same,pKd,[17],below the threshold
same,pKd,[18],below the threshold
same,pKd,[19],below the threshold
same,pKd,[20],4.3
same,pKd,[21],below the threshold
same,pKd,[22],below the threshold
same,pKd,[23],below the threshold
same,pKd,[24],4.68
same,pKd,[25],5.69
